From the supplement of paper PMC10567573 come the findings set out here.

± gives the standard deviation.

A short description of the data set: protein stability index of a GFP-peptide fusion (GPS, HEK-293T) (PSI 1-6); higher = more stable.
Setting [1] is: treatment: DMSO, c terminus: a fixed tail appended.
Where [2] appears, read: treatment: MLN4924 1 uM, 8 h, c terminus: a fixed tail appended.
Where [3] appears, read: treatment: DMSO, c terminus: native.
Where [4] appears, read: treatment: MLN4924 1 uM, 8 h, c terminus: native.
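Also: 24-mer peptide tiles fused after GFP, lentivirally expressed, FACS-sorted into six equal bins by GFP/DsRed ratio, decoded by Illumina sequencing, PSI is the read-weighted mean bin number.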

REAVSQLRELCRLWLRPETHTKEQ [ZNF24]: the protein stability index runs as follows: under setting [1], 2.8 ± 0.32; under setting [2], 3.03 ± 0.41.

Take RELLLDGGYLQRTTYDRRSSQERK [RSPH3]: the protein stability index by setting is: under setting [1], 4.39 ± 0.28; under setting [2], 4.8 ± 0.24. On the same counts, the results for RENMSDGDTSATESGDEVPVELYT [KMT2E] are 5.32 ± 0.21 and 5.21 ± 0.22.

With REVMESAVGNSSGSGQNEESPRKR [FBXO28], the protein stability index reads like this: under setting [1], 5.51 ± 0.14; under setting [2], 5.49 ± 0.38.

In the case of RFFACPSKATFSRNIMNLIDIVAI [KCNA3], the protein stability index by setting is: under setting [1], 2.8 ± 0.61; under setting [2], 2.87 ± 0.46. For the sequence RFFASSSLHHTSECTQMDHLGCMH [ALDH8A1], the protein stability index is, setting by setting: under setting [1], 2.87 ± 0.22; under setting [2], 2.85 ± 0.32. In the case of RFFIDFPHIEEQQKKIESYLHNHF [TENT5D], the protein stability index is 2.13 ± 0.38 under setting [1] and 2.35 ± 0.18 under setting [2]. On the same counts, the results for RGDIFERIVHLQETCDLGKIKPEA [NLN] are 3.59 ± 0.37 and 3.6 ± 0.29. Consider RGFMEMNGRGELVESLKRFCASTR [AUP1], for which the protein stability index under setting [1] stood at 2.54 ± 0.3 and the protein stability index under setting [2] is 2.73 ± 0.18. On the same counts, the results for RGGGAAGAGGGGSGAGGGSGGSGG [KLHDC10] are 5.2 ± 0.66 and 4.89 ± 0.48. RHFGTILNYLRDGSVPLPESTREL [KCTD13]: the protein stability index runs as follows: under setting [1], 2.78 ± 0.16; under setting [2], 2.94 ± 0.41. On the same counts, the results for RIKIWDVYTGKLLLNLVDHTEVVR [WSB1] are 2.61 ± 0.59 and 2.57 ± 0.34. On the same counts, the results for RIPYTKSQTEAHYSCQSKEILRYM [P2RY14] are 2.42 ± 0.32 and 2.45 ± 0.49. Regarding RIRIDDEPANLDILDTAGQAEFTA [RIT1], the protein stability index reads like this: under setting [1], 4.62 ± 0.23; under setting [2], 4.77 ± 0.11. RKGKDKENGSVSSSETPPPPPPPN [EIF5] gave a protein stability index under setting [1] of 5.15 ± 0.2 and a protein stability index under setting [2] of 5.22 ± 0.28. On to RKHSDLEEEEERWEWSPAGLQSYQ [SERTAD3], for which the protein stability index runs as follows: under setting [1], 4.35 ± 0.26; under setting [2], 4.38 ± 0.17. For RKVKSTITLDGGVLVHVQKWDGKS [FABP4] the same measures were 3 ± 0.23 and 3.15 ± 0.52. For RLPNRQLISCSEDGSVRIWELREK [WDR41] the same measures were 3.23 ± 0.2 and 3.31 ± 0.42. Take RMTGGRPPLPPPDDPATLGPHLGL [DYRK1B]: the protein stability index under setting [1] is 4.2 ± 0.2 and the protein stability index under setting [2] was determined as 4.26 ± 0.18. Regarding RPPAYSPAQRSHTYTHGLGLHRRP, the protein stability index stood at 3.63 ± 0.28 under setting [1] and 3.75 ± 0.16 under setting [2].

For RPPGPAGTEQSRGLGHGSTSRGGP [CPOX], the protein stability index turned out to be 4.794 ± 0.018 under setting [1] and 4.92 ± 0.33 under setting [2]. For RPVLLSKIEGHQDAVTAALLIPKE [WDFY1] the same measures were 3.87 ± 0.28 and 3.94 ± 0.34. For RQKDLKFLSEEEYWKLQIFFTNVI [CCNC] the same measures were 2.57 ± 0.25 and 2.47 ± 0.83. For RQTKKMFCDMDKSLLCLLCSNSQE [TRIM43] the same measures were 2.44 ± 0.15 and 2.86 ± 0.21. With RQVNIRTANCTTANQNCVNKSKLL [KCNA1], the protein stability index is 3.51 ± 0.12 under setting [1] and 3.48 ± 0.28 under setting [2]. For RREQAAAAPFPSPAPASPAISVVG [TFE3] the same measures were 4.22 ± 0.35 and 4.24 ± 0.18. Turning to RRKCGQYWPLEKDSRIRFGFLTVT [PTPN9], the protein stability index by setting is: under setting [1], 2.3 ± 0.69; under setting [2], 2.16 ± 0.47. RRLIKRFSFKSKPKANGNPSPQL [C2CD2L]: the protein stability index under setting [3] turned out to be 4.24 ± 0.3 and the protein stability index under setting [4] came out at 4.38 ± 0.16. RRLPLAFRDATSAPLRKLSVDLIK [DYRK1B] registered a protein stability index under setting [1] of 2.46 ± 0.39 and a protein stability index under setting [2] of 2.45 ± 0.26.

For RRNEETPEEGQQPWLCGESFTLAD [GDAP1], the protein stability index runs as follows: under setting [1], 5.02 ± 0.13; under setting [2], 4.99 ± 0.3. For RRYVASVSLHDRIYVIGGYDGRSR [KLHL12] the same measures were 2.53 ± 0.31 and 2.49 ± 0.5.

With RSIQGHNDYICPATNQCTIDKNRR [ESR2], the protein stability index runs as follows: under setting [1], 3.84 ± 0.43; under setting [2], 4.21 ± 0.33. On the same counts, the results for RSLNVFVKDDDRLTFHRHPVAQST [SPSB4] are 3.51 ± 0.3 and 3.62 ± 0.29. For RTPRLMPDKESMYYPRVQHYRELL [GDAP1] the same measures were 2.52 ± 0.17 and 2.61 ± 0.27. Take RTRTATMLCAASGNPDPEITWFKD [PTPRD]: the protein stability index runs as follows: under setting [1], 3.64 ± 0.15; under setting [2], 3.72 ± 0.35. In the case of RVEFPRSGRGTGRGGGGGGGGGAP [SRSF1], the protein stability index turned out to be 4.7 ± 0.39 under setting [1] and 4.8 ± 0.28 under setting [2]. For RVERRFHFSQSLTVIHDFLFSLKE [FAF2] the same measures were 2.17 ± 0.15 and 2.44 ± 0.23. For RWALLSCRGKKPSRIYGQAMAIIN [KLHDC10] the same measures were 2.32 ± 0.55 and 2.18 ± 0.32. For RWSLISLSNKNGKNVELKFVDSIR [TENT5C] the same measures were 2.39 ± 0.26 and 2.36 ± 0.44.

With RYFYLLENIAWVKSYNICFELEDS [PDS5B], the protein stability index is, setting by setting: under setting [1], 2.75 ± 0.2; under setting [2], 2.05 ± 0.61. For RYLEAEFKKGNRYIRCQKEVGKSF [SMG5] the same measures were 2.57 ± 0.71 and 2.29 ± 0.21.

As to RYTGTTPSPPPGSHYTSPSENMWN [CARM1], the protein stability index under setting [1] was 3.48 ± 0.23 and the protein stability index under setting [2] was 3.57 ± 0.23. For SAAGHLKVVQSLLNHGASVNNTTL [FEM1C], the protein stability index by setting is: under setting [1], 3.06 ± 0.21; under setting [2], 3.13 ± 0.38. For SAGEQKTERMDKVGDALEEVLSKA [GADD45A] the same measures were 5.58 ± 0.18 and 5.41 ± 0.26. On the same counts, the results for SAKNTSHPGSGTKVQFNLQFTKPN [SASS6] are 3.35 ± 0.12 and 3.61 ± 0.14. For the sequence SALATQYMHCVNHAKQSMLEKGG [CHCHD3], the protein stability index came out at 2.81 ± 0.55 under setting [3] and 3.02 ± 0.34 under setting [4]. Take SASHRPCVNGDVDKPSEPASEEGS [SMG5]: the protein stability index turned out to be 5.49 ± 0.17 under setting [1] and 5.641 ± 0.046 under setting [2]. On the same counts, the results for SDAAFGGILERYWLSSRAAAIKVN [MYORG] are 2.19 ± 0.2 and 2.17 ± 0.21.

On to SDINSLRRILDELTLCRSDLEAQM [KRT33B], for which the protein stability index stood at 2.85 ± 0.36 under setting [1] and 2.92 ± 0.38 under setting [2]. Regarding SDPSTIEASNFQMDRKTRFIIHGF [PNLIPRP1], the protein stability index under setting [1] amounted to 2.42 ± 0.067 and the protein stability index under setting [2] worked out at 2.37 ± 0.26.

As to SDTRVGAPATGSGTPGPFTKEGGM [CHIT1], the protein stability index is, setting by setting: under setting [1], 4.76 ± 0.26; under setting [2], 4.98 ± 0.14. For SDTTHLVTLGGVLRQQLVVSKELR [KLHL13] the same measures were 3.04 ± 0.069 and 3.1 ± 0.3. In the case of SDVLTISGTIMKIGIEAKNLASYD [MCOLN1], the protein stability index came to 2.39 ± 0.24 under setting [1] and 2.5 ± 0.33 under setting [2].

Take SDVVGRRSSLLACILLSALGYLLL [MFSD9]: the protein stability index came to 3.22 ± 0.32 under setting [1] and 3.19 ± 0.26 under setting [2].

Take SEEKGHPQEESEESNVSMASLGEK [CHGB]: the protein stability index runs as follows: under setting [1], 5.48 ± 0.21; under setting [2], 5.61 ± 0.19. SEGLVGALMHVMQKRSRAIHSSDE [WAS] yielded a protein stability index under setting [1] of 3.67 ± 0.3 and a protein stability index under setting [2] of 3.79 ± 0.15.

SEVKEELAGQKDELQLSDLLKQGY [PKD2L1] returned a protein stability index under setting [1] of 4.81 ± 0.28 and a protein stability index under setting [2] of 4.92 ± 0.24. For SFGACLREETPRMPSWASARDRQP [ELOA2] the same measures were 3.4 ± 0.34 and 3.13 ± 0.32. On the same counts, the results for SFLWQRGRKFLQKHLNASNPTEPA [TOR1AIP2] are 2.86 ± 0.13 and 3.05 ± 0.17.

Regarding SFVKKNVLVTGGFFGGFLLGMAS [FUNDC2], the protein stability index was 3.64 ± 0.15 under setting [3] and 2.96 ± 0.41 under setting [4]. For SGIGREGAKDSYDFFTEIKTITVK [ALDH8A1], the protein stability index was found to be 3.27 ± 0.37 under setting [1] and 3.28 ± 0.4 under setting [2]. On the same counts, the results for SGLRMVPEHRAFGSPFGLEEPQWV [ZFYVE21] are 2.8 ± 0.14 and 2.93 ± 0.26. On the same counts, the results for SGPEAARAGGWVSGEEFYMLTRRV [PKD2L1] are 2.69 ± 0.29 and 2.96 ± 0.49. On the same counts, the results for SINTHLGKEQSRRDDLEALGHMFM [CSNK1G3] are 2.81 ± 0.28 and 3.03 ± 0.49.

SKKLRAILPKQSRKSMLDAGPDSW [LCOR]: the protein stability index is, setting by setting: under setting [1], 2.71 ± 0.06; under setting [2], 3.03 ± 0.44. In turn, SKPGVYTSYKPYLNRDEEIIKQLQ [DENND6A] displayed a protein stability index under setting [2] of 3.35 ± 0.42.

As for SKSADNQEYFERHRWPPVWYLKEE [RHOBTB1], the protein stability index turned out to be 3.4 ± 0.29 under setting [1] and 3.43 ± 0.34 under setting [2]. On the same counts, the results for SKSTQFEYAWCLVRSKYNDDIRKG [FIS1] are 2.26 ± 0.34 and 2.55 ± 0.56.

With SLEDLIFESLPENASHKLEVRLVP [ATE1], the protein stability index is, setting by setting: under setting [1], 2.79 ± 0.3; under setting [2], 2.98 ± 0.3.

For the sequence SLKAICTEIANCSLKVKFFDLERE [PLD5], the protein stability index by setting is: under setting [1], 2.12 ± 0.17; under setting [2], 2.26 ± 0.84. For SLKEDLTQHKFICEQCGKCKCGEC [SPRY1], the protein stability index runs as follows: under setting [1], 5.32 ± 0.36; under setting [2], 5.22 ± 0.14.

Take SLVADNCVTLVWRMPDEDSKIDHY [FSD1]: the protein stability index reads like this: under setting [1], 2.62 ± 0.15; under setting [2], 2.94 ± 0.34.
